These results are taken from the nanobody polyreactivity screen of Harvey et al. (2022).

The series in a line: yeast display, Sf9 membrane polyspecificity reagent, FACS + sequencing; frameworks hold sequencing errors. An outline of the steps: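 Genes from sorted yeast were amplified by colony PCR, read by MiSeq 2 × 250 sequencing and filtered on CDR length. These cells carried a synthetic nanobody library in Saccharomyces cerevisiae BJ5465 and were sorted by FACS into low and high (top ~1%) gates on anti-HA and streptavidin fluorescence. Polyreactivity is labelled according to the gate of origin.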
With “QVQLVESGGGLVQAGGSLRLSSAASGFILDTNAMGWYRQAPGKERELVSAITKRGIRTYYADSVKGRFTISRDNAQNTVYLQMNSLKPEDTAVYYCNAQRPIATVWHRYDSWGQGTQVTVSS”, the “polyreactivity (PSR sort gate)” value is “high polyreactivity”.

Turning to “QVQLVESGGGLVQAGGSLRLSSAASGFTFSQYAMGWYRQAPGKERELVAAISVSGGTTYYADSVKGRFTISRDNAKNTVYLQMNSLKPEDTAVYYCAARTPYSRSPYVNTSGYYYWGQGTQVTVSS”, the “polyreactivity (PSR sort gate)” value is recorded as “high polyreactivity”.

For “QVQLVESGGGLVQAGGSLRLSSAASGFTFWSKAMGWYRQAPGKERELVAAISRGGSTYYADSVKGRFTITRDNAKNTVYLQMNSLKPEDTAVYYCAAVRLSRVYYWGQGTQVTVSS”, the “polyreactivity (PSR sort gate)” value was “high polyreactivity”.

For the sequence “QVQLVESGGGLVQAGGSLRLSSAASGFTFYRNPMGWYRQAPGKERELVAAITRSGTSTYYADSVKGRFTISRDNAKNSVYLQKNSLKPEDTAVYYCNTVGYRGRSNSRFYYWGQGTQVTVSS”, the “polyreactivity (PSR sort gate)” value is on record as “high polyreactivity”.

With “QVQLVESGGGLVQAGGSLRLSSAASGGTFTKNAMGWYRQAPGKERELVAAISWRGTSTYYADSVKGRFSISRDNAKNTVYLQMNSLKPDDTAVYFCLPWVGYGRYKPGYKYDYWGQGTQVTVSS”, the “polyreactivity (PSR sort gate)” value is “high polyreactivity”.

“QVQLVESGGGLVQAGGSLRLSSAASGIIFGVYGMGWYRPAPGKERELVASIRYSSVRTYYADSVKGRFTISRDNAKNTVYLQMNSLKPEDTAVYYCAKYYVWPSYGYWGQGTQVTVSS”: the “polyreactivity (PSR sort gate)” value is listed as “high polyreactivity”.

Consider “QVQLVESGGGLVQAGGSLRLSSAASGIIFKSYAMGWYRPAPGKERELVSAISGGGDTYYAYSVKGRFTISRDNAKNTVNLQMNSLKPEDTAVYYCNTDGSQGTIIAIFVKYDYWGQGTQVTVSS”, for which the “polyreactivity (PSR sort gate)” value is on record as “low polyreactivity”.

Turning to “QVQLVESGGGLVQAGGSLRLSSAASGIIFRVYTMGWYLQAPGKERELVAKISLGGARTYYADSVKGRFTISRDNAKNTVYLQMNSLKPEDTAVYYCNARSRWTAKFDYWGQGTQVTVSS”, the “polyreactivity (PSR sort gate)” value is listed as “high polyreactivity”.

As to “QVQLVESGGGLVQAGGSLRLSSAASGITFDDYAMGWNRQAPGKERELVAAITWSGDSTYYADSVKGRFTISRDNAKNTVYLQMNSLKPEDTAVYYCAAVSYYYSGYIRGYWGQGTQVTVSS”, the “polyreactivity (PSR sort gate)” value was “high polyreactivity”.

In the case of “QVQLVESGGGLVQAGGSLRLSSAASGITFRTNTMGWYRQAPGKERELVASISSGTRTNYADSVKGRFTISRDNAKNTVYLQMNSLKPEDTAVDYCAAGPPRNRYRNARFDYWGQGTQVTVSS”, the “polyreactivity (PSR sort gate)” value is “high polyreactivity”.

As for “QVQLVESGGGLVQAGGSLRLSSAASGITFYVYAKGRYRQAPGKERELVAAISGSGGNTYYADSVKGRFTISRDNAKNTVYLQMNSLKPEDTPVYYFNADDHSPYYGDLDYWGQGTQVSVSS”, the “polyreactivity (PSR sort gate)” value is “low polyreactivity”.

“QVQLVESGGGLVQAGGSLRLSSAASGLIFTRYAMGWYRQATGKERELVAAISYSGTSTYYADSVKGRFTISRDNAKNTVYLQMNSLKPEDTAVYYCAARSSYPLKGYYWGQGTQVTVSS”: the “polyreactivity (PSR sort gate)” value is recorded as “high polyreactivity”.

As for “QVQLVESGGGLVQAGGSLRLSSAASGNIFPAYPMGWYRQAPGKERELVAAISKSGGRTYYADSVKGRFTISRDNAKNTVYLQMNSLKPEDTAVYYALLTVLRAVPYSVRYDYWGQGTQVTVSS”, the “polyreactivity (PSR sort gate)” value was “high polyreactivity”.

As to “QVQLVESGGGLVQAGGSLRLSSAASGNIFSDYAMGWNIQAPGKERELVAAISSGGNTNYADSVKGRFTISRDNAKNTVYLQMNSLKPEDTAVYYCAAVYNTTYTLLPEYIYDYWGHGTQVTVSS”, the “polyreactivity (PSR sort gate)” value is on record as “low polyreactivity”.

Regarding “QVQLVESGGGLVQAGGSLRLSSAASGNIFYTNTMGWYRQAPGKERELVAAITSGGTTYYADSVKGRFTISRDNAKNTVYLQMNSLKPEDTAVYYCAVRSSKWSWIYYYWGQGTQVTVSS”, the “polyreactivity (PSR sort gate)” value was “high polyreactivity”.

With “QVQLVESGGGLVQAGGSLRLSSAASGRIFDDNAMGWYRQAPGKERELVAAITGPDDSTDYADSVKGRFTISRDNAKNTVYLQMNSLKPEDTAVYYCAKDAGYWYYWNGYWGQGTQVTVSS”, the “polyreactivity (PSR sort gate)” value is “high polyreactivity”.

“QVQLVESGGGLVQAGGSLRLSSAASGRIFGRYAMGWYRQAPGKERELVDAITCTGGTTYYADSVKGRFTISRDNAKNTVYLQMNSLKPEDTAVYYCAARQGYGIYGDYYYWGQGTHVTVSS”: the “polyreactivity (PSR sort gate)” value is listed as “high polyreactivity”.

In the case of “QVQLVESGGGLVQAGGSLRLSSAASGRIFIDYAMGWYRQAPGTDRELVATITSSGGSTYYADSVKGRFTISRDNAKNTVYIQMTSLKPVDTAVYYCNAKERYYFGNYKYGYWGQGTQVTVSS”, the “polyreactivity (PSR sort gate)” value is given as “low polyreactivity”.

For the sequence “QVQLVESGGGLVQAGGSLRLSSAASGRIFKDNAMGWYRQAPGKERELVAAISSGASTSYADSVKGRFTISRDNAKNTVYLQMNSLKPEDTAVYYCNRGGYLYYPGWLFDYWGQGTQVTVSS”, the “polyreactivity (PSR sort gate)” value was “low polyreactivity”.

On to “QVQLVESGGGLVQAGGSLRLSSAASGRIFNIYAMGWYRQAPGKERELVARITSGGRTNYADSVKGRFTISRDNAKNTVYLQRNSLKPEDTAVYYCAARTYGQRGDYWGQGTQVTVSS”, for which the “polyreactivity (PSR sort gate)” value is recorded as “high polyreactivity”.

For the sequence “QVQLVESGGGLVQAGGSLRLSSAASGRIFPYYAMGWYRQAPGKERELVAAITSSGGSTYYADSVKGRFTISRDTAKNTVYFQMNSLKPEDSAVYYCAGTSPYDDYPYTRGIYAYGYWGQCTQVTVSS”, the “polyreactivity (PSR sort gate)” value was “low polyreactivity”.

“QVQLVESGGGLVQAGGSLRLSSAASGRIFQKYAMGWYRPAPGKERELVAAISSGDSTYADSVKGRFTISRDNAKNTVYLQMNSLKPEDTAVYYCAADDRWDYDYWGQGTQGTVSS”: the “polyreactivity (PSR sort gate)” value was “low polyreactivity”.

Turning to “QVQLVESGGGLVQAGGSLRLSSAASGRIFRGNVMGWYRQAPGKERELVAVIRSSSGRTYYADSVKGRFTISRDNAKNTVYLQMNSLKPEDTAVYDCAAKSVWGQGTQVTVSS”, the “polyreactivity (PSR sort gate)” value is listed as “high polyreactivity”.

Regarding “QVQLVESGGGLVQAGGSLRLSSAASGRIFRHYAMGWYRQAPGKERELVASITRGDNTYYADSVKGRFTISRDNAKNTVYLQMNSLKPEDSAVYYCAAVFYSYSSASEYYYWGQGTQVTVSS”, the “polyreactivity (PSR sort gate)” value is given as “high polyreactivity”.

On to “QVQLVESGGGLVQAGGSLRLSSAASGRIFSYNAMGWYRQAPGKERELVASISYSGTSTYYADSVKGRFTISRDNAKNTVYLQMNRLKPEDTAVYYCAALSRRRFGYWGQGTQVTVSS”, for which the “polyreactivity (PSR sort gate)” value is given as “high polyreactivity”.

In the case of “QVQLVESGGGLVQAGGSLRLSSAASGRIFTYYAMGWYRQAPGKERELVATISRRGGSTYYADSVKGRFTISRDNAKNTVYLQMNSLKPEDTAVYYCNRTYYGYDYWGHGTQVTVSS”, the “polyreactivity (PSR sort gate)” value is on record as “high polyreactivity”.

“QVQLVESGGGLVQAGGSLRLSSAASGRIFWFNAMGWYRQAPGKEREWVATISSGDSTNYADSVKGRFTISRDNAKNTVYLQMNSLKPDDTAVYYCNARVSHVQVGFDSWGQCTQVTVSS”: the “polyreactivity (PSR sort gate)” value is “low polyreactivity”.

As to “QVQLVESGGGLVQAGGSLRLSSAASGRIFYGYAMGWYRQAPGKERELVAAISWSGGSTYYADSVKWRFTISRDNAKNTVYLQMNSLKPEDTAVYYCARRDRGGYKYDYWGQGTQVTVSS”, the “polyreactivity (PSR sort gate)” value was “high polyreactivity”.

Take “QVQLVESGGGLVQAGGSLRLSSAASGRIFYNYAMGWYRQSPGKERELVAAISGSGGSTYYADSVKGRFTISRDNAKNTVYLQMNSLKPEDTAVFYCSTSGPQYYSRNFDYWGQGTQVTVSS”: the “polyreactivity (PSR sort gate)” value is on record as “low polyreactivity”.

Consider “QVQLVESGGGLVQAGGSLRLSSAASGRIFYRNAMGWCRQAPGKERELVASITSAGRRYYADSVKGRFTISRDNAKNTVYLQMNSLKPEDTAVYYCAVRVAVLLNLYGYWGQGTQVTVSS”, for which the “polyreactivity (PSR sort gate)” value is recorded as “low polyreactivity”.

In the case of “QVQLVESGGGLVQAGGSLRLSSAASGRIFYYNAMGWYSQAPGKERELVAAITRGGSTYYADSVKGRFTISRDNAKNTVYLQMNSLKPEDTAVYYCAAYLDYWSYLNGQYDYWGQGTQVTVSS”, the “polyreactivity (PSR sort gate)” value is listed as “high polyreactivity”.

“QVQLVESGGGLVQAGGSLRLSSAASGRIIDDNTMGWYRQAPGKERELVAAISVSGGRTYYADSVKGRFTISRDNAKNTVYLQMNSLNPEDTAVYFCAAARGGEYWGQGTQVTVSS”: the “polyreactivity (PSR sort gate)” value is listed as “high polyreactivity”.

In the case of “QVQLVESGGGLVQAGGSLRLSSAASGRTFNIYAKGWYRHAPGKERELVAAITWRSGSTYDADSVKGRFTISRDNAKNTVYLQMNSLKPEDTAVYYCAAEQWSSVPEFDYWGQGTQVTVSS”, the “polyreactivity (PSR sort gate)” value is listed as “high polyreactivity”.

In the case of “QVQLVESGGGLVQAGGSLRLSSAASGRTFRHYALGWSRQAPGKERELVAVISWRGTGTYYADSVKGRFTISRDNAKNTVYLQMTSLKPEDTSVYYCATVWGLGYRMNYWGQGTQVTVSS”, the “polyreactivity (PSR sort gate)” value is recorded as “high polyreactivity”.

“QVQLVESGGGLVQAGGSLRLSSAASGRTFRYYAMGWYRQAPGKERELVASISDGGSTNYADSVKGRFTISRDNAKNTVYLQMNSLKPEDTAVYYCAADGWWQYDYWGQGTQVTVSS”: the “polyreactivity (PSR sort gate)” value was “low polyreactivity”.

Turning to “QVQLVESGGGLVQAGGSLRLSSAASGRTFSSYAMGWYRQAPGKERELVAAINWSGASTYYADSVKGRFTISRDNAKNTVYLQMNSLKPEDTAVYYCAKSLYVGKYWQIRSSVDYWGQGTQVTVSS”, the “polyreactivity (PSR sort gate)” value is given as “low polyreactivity”.

For “QVQLVESGGGLVQAGGSLRLSSAASGRTFYDYAMGWYRQAPGKERELVAAITYSGGSTFYADSVKGRFTISRDNAKNTVYLQMNSLTPEDTAVYYCAAEVLRLGGAAEYDYCGQGTQVTVSS”, the “polyreactivity (PSR sort gate)” value was “low polyreactivity”.

For “QVQLVESGGGLVQAGGSLRLSSAASGRTFYRHAMGWYRQAPGKERELVAASTRSGSTNYADSVKGRFTISRDNAKNTVYLQMNSLKPEDTADYYCAAKFFRNTYSYGMDYWGQGTQVTVSS”, the “polyreactivity (PSR sort gate)” value is “high polyreactivity”.

For “QVQLVESGGGLVQAGGSLRLSSAASGRTFYRNAIGWYRQAPGKERELVAAISSGSTTYYADSVKGRFTISRDNAKNTVYLQMNSLKPEDTAVYYCATTLRQYKPPSGRDYWGQGTQVTVSS”, the “polyreactivity (PSR sort gate)” value is reported as “low polyreactivity”.

Take “QVQLVESGGGLVQAGGSLRLSSAASGRTFYSNAMGWYRQAPGKERELVAAITRGASTKYADSVKGRFTISRDNAKNSVYLQMNSLKPEDTAVYYCDTARYPRYIYDYWGQGTQVTVSS”: the “polyreactivity (PSR sort gate)” value was “low polyreactivity”.

In the case of “QVQLVESGGGLVQAGGSLRLSSAASGRTFYWYAMGWYRQAPGKQRELVASISIDGRTYYADSVKGRFTISRDNAKNNVYLQMNSLKPEDTAVYYCNVVRYYPYRPTTKRGGGYWGQGTQVSVSS”, the “polyreactivity (PSR sort gate)” value is “high polyreactivity”.
